Assay results as given in the nanobody polyreactivity screen of Harvey et al. (2022).

Assay: yeast display, Sf9 membrane polyspecificity reagent, FACS + sequencing; frameworks hold sequencing errors
Outline: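 Genes from sorted yeast were amplified by colony PCR, read by MiSeq 2 × 250 sequencing and filtered on CDR length. These cells carried a synthetic nanobody library in Saccharomyces cerevisiae BJ5465 and were sorted by FACS into low and high (top ~1%) gates on anti-HA and streptavidin fluorescence. Polyreactivity is labelled according to the gate of origin.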

| Sequence | polyreactivity (PSR sort gate) |
| --- | --- |
| QVQLVESGGGLVQAGGSLRLSCAASGRIVEGNVMGWYRQAPGKERELVAGISSGGSTTYADSVKGRFTISRDNAKNTVYLQMNSLKPEDTAVYYCAASRKRFRHSSYRFYYCGQGTQVTVSS | high polyreactivity |
| QVQLVESGGGLVQAGGSLRLSCAASGRIVKFYDMGWYRQAPGKEREFVAAISRRGSSTYYADSVKGRFTISRDNAKNTVYLQMNSLKPEDTAVYYCAADWTFGAIGYYYWGHGTQVTVSS | high polyreactivity |
| QVQLVESGGGLVQAGGSLRLSCAASGRIVKYAMGWYRQAPGKERELVAAISGSGGTTYYADSVKGRFTISRDNAKNTVYLQMNSLKPEETAVYYCAASRPRPPSSRRMDYWGQGTQVTVSS | high polyreactivity |
| QVQLVESGGGLVQAGGSLRLSCAASGRIVWYAMGWYRQAPGKERELVAAINWSGGSTYYADSVKGRFTISRDNAKNTVYLQMNSLKPEDTAVYYCAADVRNYWLEYEYWGQGTQVTVSS | low polyreactivity |
| QVQLVESGGGLVQAGGSLRLSCAASGRIVYLNAMGWYRQPPGKERELVAAINTSGDSTYYADSVKGRFTISRDNAKNTVYLQMNSLKPVDTAVYYCAAYVIGPDQFIYDYWGQGTQVTVSS | low polyreactivity |
| QVQLVESGGGLVQAGGSLRLSCAASGRIYCKYAMGRYRQAPGKERELVAGISRGAGRTYYADSVKGRFTISRDNAKNTVYLQMNSLKPADTAVSYCAAVPSYHSTSPFYYWGQGTQVTVSS | high polyreactivity |
| QVQLVESGGGLVQAGGSLRLSCAASGRIYGFNTMGWYRQAPGKERELVAAITTSGVSTYYADSVKGRFTISRDNAKNTVYLQMNSLKPEDTAVYYCAARWYRTGPYKRRDYWGQGTQVTVSS | high polyreactivity |
| QVQLVESGGGLVQAGGSLRLSCAASGRIYINNAMGWYRQAPGKDREFVAAITSGGRTYYADSVKGRFTISRDNAKYTVYLQMNSLKPEDTAVYYCAPRYYRQYTRHYGYGYWGQGTQVTVSS | high polyreactivity |
| QVQLVESGGGLVQAGGSLRLSCAASGRIYPYYAMGWYRQAPGKERELVAAITTRGGSTYYADSVKGRFTISRDNAKNTVYLQMNSLKPEDTAVYYCAAVTFGRMEYWGQGTQVTVSS | low polyreactivity |
| QVQLVESGGGLVQAGGSLRLSCAASGRIYPYYDMGSYRPAPGKERELVAAITWNGGSTYYADSVKGRFTISRDYAKNTVYLQMNSLKPEDTAVYYCAVEPYYYGEDYWGQGTQVTVSS | low polyreactivity |
| QVQLVESGGGLVQAGGSLRLSCAASGRIYRYAMGWYRQAPGKERELVAAISGGGGRTYYADSVKGRFTISRDNAKNTFYLQLNSLKPEVTAVYDCAVDPYFYYYGDYYFDYWGQGTQVTVSS | high polyreactivity |
| QVQLVESGGGLVQAGGSLRLSCAASGRIYRYAMGWYRQAPWKERELVASISRRGGSTYYADSVKGRFTISRDNAKNTVYVQMNSLKPEDTALYSCNAYGYSFCYDYWGHGTQVTVSS | high polyreactivity |
| QVQLVESGGGLVQAGGSLRLSCAASGRIYWLYAMGWYRQAPGKERELVAAITGIGGSTYYADSVKVRFTISRDNAKNTVYLQMNSLKPEDTAVYYCAARNPASTAWMNYWGQGTQVNVSS | low polyreactivity |
| QVQLVESGGGLVQAGGSLRLSCAASGRLFKIYAMGWYRQAPGKERELVATISSGGRTNYADSVKGRFTISRDNAKNTVYLQMNSLKPEDTAVYYCNAGARVLYETESFDYWGQGIQVTVSS | low polyreactivity |
| QVQLVESGGGLVQAGGSLRLSCAASGRMFHIYAMGWYRQAPGKERELVAGITTSGGSTYYADSVKGRFTISRDNAKNTVYLQMNSLKPEDTSVDYCARDGLWWCGLTKRWWEFYYWGQGTQVTVSS | low polyreactivity |
| QVQLVESGGGLVQAGGSLRLSCAASGRMFYYYVMGWYRQAPGKESELVAVIDWSGGSTYYADSLKGRFTISRDTAKNTVYLQMNSLKPEDTAVYYCARVPYGNPNGNTPYGDNRYNSWGQGTQVTVSS | low polyreactivity |
| QVQLVESGGGLVQAGGSLRLSCAASGRNFDWYAMGWYRQAPGKERELVAAISTSGANTYYADSVKGRFTISRDNAKNTVYLQMNSLKPEDTAVYYCATDPYQPYEGDYWGQGTLVTVSS | low polyreactivity |
| QVQLVESGGGLVQAGGSLRLSCAASGRNFDYYTMGWYRQAPGKERELVARIRRSAGTTYYADSVKGRFTISRDNAKNPVYCQMNSLIPEDTAVYYCNVVPYFKYGYWGQGTQVTGSS | low polyreactivity |
| QVQLVESGGGLVQAGGSLRLSCAASGRNFFTYAMGWYRQAPGKERELVAAIDRSGTSTNYADSVKGRFTISRDNANNTVYLHMHSLKPEDTAVYYCAARPNPYYDEMDYWGQGTQVTVSS | low polyreactivity |
| QVQLVESGGGLVQAGGSLRLSCAASGRNFGLNAMGWYRQAPGKERELVAAIDQGDGITYYADSVKGRFTISRDNAKNTVYLQMNSLKTEDTAVYYCAAEVSYKEIYQYYWIYPAYNYWGQGTQVTVSS | high polyreactivity |
| QVQLVESGGGLVQAGGSLRLSCAASGRNFGYYVMGWYRQAPGKERELVAAIRSSADSTYYADSVKGRFTISRDNAKNTVYLQMNSLKPEDTAVYYCAAQSPAYYTKCYWGQGTQVTVSS | low polyreactivity |
| QVQLVESGGGLVQAGGSLRLSCAASGRNFHRYAMGWYRQAPGKERELVATIRSGGGTYYADSVKGRFTISRDNAKNTVYLQMNSLKPEDTAVYDCNAQSSYSYFSGYDYWGQGTQVTVSS | low polyreactivity |

| Sequence | polyreactivity (PSR sort gate) |
| --- | --- |
| QVQLVESGGGLVQAGGSLRLSCAASGRNFKYYAMGWYRPAPGKERELVAAISWSGGSTYYADSVKGRFTISRDNAKNTVYLQMNSLKPEDTAVYYCATYGGLTKFRLAYDYWGQGTQVTVSS | high polyreactivity |
| QVQLVESGGGLVQAGGSLRLSCAASGRNFPVNAMGWYRQAPGKERELVAAISTTGARTYYADSVKGRFTISRDNAKNTVYLQMNSLKPEDTAVYYCAAKQFSVTLSNYWGQGTQVTVSS | low polyreactivity |
| QVQLVESGGGLVQAGGSLRLSCAASGRNFRVNAMGWYTQAPGKERELVAAISWIGGRTYYADSVKGRFTISRDNAKNTVYLQMNSLKPEDTAVYYCAAGTRRYYYWKYDYWGQGTQVTVSS | high polyreactivity |
| QVQLVESGGGLVQAGGSLRLSCAASGRNFTDNDMGWYIQAPGKEMDLVAGINWSSGSTYYADSVKGRFTISRDNAKNTVYLQMNSLKTEDTAVYYCNALGYWRSTVHFVVGEVDYWGQGTQVTLSS | low polyreactivity |
| QVQLVESGGGLVQAGGSLRLSCAASGRNFTRNAMGWYRQAPGKEREFVAAISWSGGSTYYADSVKGRFTLSRDNAKNTVYVQMNSLKPEDTAVYYCAAKNCGGYVSWYDYWGQGTQVTVSS | low polyreactivity |
| QVQLVESGGGLVQAGGSLRLSCAASGRNFVAYTMGWSRQAPGKERELVAAIRIIGGSTYYADSVKGRFTISRDNAKNTVYLQMNSLKPVDTAVYFCDTPYAYPGTVQYAGYNYWGQGTQVTVSS | high polyreactivity |
| QVQLVESGGGLVQAGGSLRLSCAASGRNFYGNAMGWYRQAPGKERELVAAISSGTSTNYADSVKGRFTISRDNAKNTVYLQMNSLKPEDTAVYYCAAGSYSRYLYSLYFDFDYWGQGTQVTVSS | low polyreactivity |
| QVQLVESGGGLVQAGGSLRLSCAASGRNFYVYAMGWYRQAPGKEREFVASITVSGSSTYYADSVKGRFTISRDNAKNTVYLQMNSLKPEDTAVYYCNTDAVRSYVWWGTSLYDYWGQGTLVTVSS | low polyreactivity |
| QVQLVESGGGLVQAGGSLRLSCAASGRNFYYNAMGWYRQAPGKEREFVAGISYGGTTTYYADSVKGRFTISRDNAKNTVYLLMNSLKPEDTAVYYCAAGYTWRQSWYPFDYWGQGTQVTVSS | high polyreactivity |
| QVQLVESGGGLVQAGGSLRLSCAASGRNIWGYTMGWYRQAPGKERDLVAAIRFTSGSTYYADSVKGRFTISRDNAKNSVYLQMNSLKPEDTAVYYCATPYVQTGSGYTGVYWGQGTQVTVSS | high polyreactivity |
| QVQLVESGGGLVQAGGSLRLSCAASGRNLQQYVMGWYRQAPGKERELVAAITRGGRTNYADSVKGRFTISRDYAKNTVYLLMNSLKQEDTAVYYCKTRYPSRVVAWLDYWGQGTQVNVSS | low polyreactivity |
| QVQLVESGGGLVQAGGSLRLSCAASGRNYGNAMGWYRQAPGKERELVAAISAGGGRTYYADSVKGRFTISRDNAKNTVYLQMNSLKPEDTAVYYCAADTTLQAFIRYRPIGSYDSWGQGTQVTVSS | low polyreactivity |
| QVQLVESGGGLVQAGGSLRLSCAASGRNYWVYAMGWYREAPGKERELVASIDSGSRTTYADSVKGRFTISRDNAKNTVYLQMISLKQEDTAVYYSATSSYTYSPRVWYRWRRDYWGQGTQVNVSS | high polyreactivity |
| QVQLVESGGGLVQAGGSLRLSCAASGRPFKPYAMGWYRPAPGKERELVAVISSTGSTKYADSVKGRFTISRDNAKNTVYLQMNSLKPEDTAVYYCNAGSLYSDRWVKRKYDYSGQGTQVTVSS | high polyreactivity |
| QVQLVESGGGLVQAGGSLRLSCAASGRPFYKNTMGWYRQAPGKEREFVATISASGGSTYYADSVKGRFSSSRDNATNTVYLQMNSLKPEDTAVYYCAKRDYAGYAVHIGGDMNYWGQGTQVTVSS | low polyreactivity |
| QVQLVESGGGLVQAGGSLRLSCAASGRPLGQNVMGWYRQAPGKERELVAASSSNTAGNTYYADSVKGRFTISRDNAKNTVYLQMNSLKAEDTAVYYCAKVDSFEAKLDYWGQGTQVTVSS | low polyreactivity |
| QVQLVESGGGLVQAGGSLRLSCAASGRPSLLMLWDGIDRRLGKKGSWLPLLTLVTPTTYADSVKGRFTISRDNAKNTVYLQMNSLKPEDTAVYYCNADFRPLDHYVNWYYYWGQGTQVTVSS | low polyreactivity |
| QVQLVESGGGLVQAGGSLRLSCAASGRSFCSYAMGWYRHAPGKERELVAAITSGGSTNYADSVKGRFTISRDNAKNTVYLQMNSLKPEVTAVYYCAAVEYLRESDYWGQGTQVTVSS | low polyreactivity |
| QVQLVESGGGLVQAGGSLRLSCAASGRSFCYNAMGWYSQAPGKERELVAGISSSGGTTYYADSVKGRFTISRDKAKNTVYLQMNSLKPEDTAVYYCAKRFSLLSTVRWGRYNYWGQGTQVTVSS | high polyreactivity |
| QVQLVESGGGLVQAGGSLRLSCAASGRSFDRYAMGWYRQAPGKERELVAGITASGGSTYYADSVKGRFTISRDNAKNTVYLQMNSLKPEDTAVYYCAVVYGYRYYYWGQGTQVTVSS | high polyreactivity |
| QVQLVESGGGLVQAGGSLRLSCAASGRSFGLYAMGWYRQAPGKERELVAAISYSGGRTYYADSVKRRFTLSRDNAKKTVYLQRNILKPEDTGVYYCNKAWFPYYYYRFDYWGQGTQVTVSS | high polyreactivity |
